T1: Itk kinase domain (Mus musculus, UniProt Q03526)
T1 construct: Purified 0.5 μM FLAG-tagged Itk kinase domain (Itk KD) immobilized on an anti-FLAG-resin; made in house; host or cells: Sf9 insect cells (baculovirus)
T1 sequence (Q03526 368-620 limits assumed): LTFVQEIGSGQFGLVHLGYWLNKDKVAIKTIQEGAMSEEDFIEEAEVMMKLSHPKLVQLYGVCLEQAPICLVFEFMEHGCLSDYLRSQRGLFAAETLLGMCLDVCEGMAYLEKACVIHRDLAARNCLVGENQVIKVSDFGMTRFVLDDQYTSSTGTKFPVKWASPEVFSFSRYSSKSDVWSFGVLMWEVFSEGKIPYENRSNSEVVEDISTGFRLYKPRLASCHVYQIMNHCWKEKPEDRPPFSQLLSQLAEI


Molecular target: T1, Itk kinase domain
Assay: Pull-down assay of SH2 domains with Itk kinase domain
Assay type: binding
Details: purified tagged proteins
Description: 3(a) Empty anti-FLAG resin (lane 1) or purified FLAG-tagged Itk kinase domain (Itk KD) immobilized on an anti-FLAG-resin (lanes 2 and 3) were incubated with purified myc-tagged control protein (lane 2) or myc-tagged Itk SH2 domain (lanes 1 and 3) in a pull-down assay. […] 3(b) Purified FLAG-tagged Itk KD (lane 1) was incubated with GST (lane 2) or GST-PLCγ1 C-terminal SH2 domain (GST-PLCγ1 SH2C) (lane 3) each immobilized on glutathione beads in a pull-down assay. […] One μM Itk 32 (lanes 1 and 3) or Itk 32 (R265K) (lanes 2 and 4), were incubated with 250 nM FLAG-tagged full-length Itk in an in vitro kinase assay. Lanes 1 and 2 are no enzyme control. […] One, 3, 5 and 10 μM PLCγ1 SH2C-Y783- (d) or PLCγ1 SH2C(R964A,R696A)-Y783- 3(e), were subjected to phosphorylation by 1.2 μM full-length FLAG-tagged Itk. Lanes 5 and 6 (containing 1 and 10 μM substrate, respectively) are no enzyme controls. Coomassie stain of the gels and anti-FLAG blots (bottom panels) show protein levels. (f & g) Interaction between the SH2 domain and Itk kinase domain is independent of the phosphorylation status of the kinase domain. […] Itk KD that is co-expressed with Lck but also pretreated with alkaline phosphatase is not phosphorylated (lane 3). […]

Row | interaction with Itk kinase domain (pull-down) | Molecule
1 | interacts directly | PLCγ1 SH2C domain: isolated carboxy-terminal SH2 domain of PLCγ1 (protein) QTNAHESKEWYHASLTRAQAEHMLMRVPRDGAFLVRKRNEPNSYAISFRAEGKIKHCRVQQEGQTVMLGNSEFDSLVDLISYYEKHPLYRKMKLRYPI
2 | interacts directly | Itk SH2 domain: isolated exogenous SH2 domain of Itk, purified from bacteria (protein) EWYNKSISRDKAEKLLLDTGKEGAFMVRDSRTPGTYTVSVFTKAIISENPCIKHYHIKETNDSPKRYYVAEKYVFDSIPLLIQYHQYNGGGLVTRLRYPVCSWRQKA

Reference: patent US20090010911A1, “METHODS AND COMPOSITIONS FOR AFFECTING CYCLOPHILIN A REGULATION OF KINASES IN MODULATING CELLULAR ACTIVITIES” (IOWA STATE UNIVERSITY RESEARCH FOUNDATION, INC., priority 2007, published 2009)
